According to publication PMC11032465:

How the values were obtained:
[1] = molecular target: GhV F I268F/Q287P/S196C/A215C ectodomain (Ghanaian virus); test: negative-stain EM
[2] = molecular target: GhV F I268F/Q287P ectodomain (Ghanaian virus); test: negative-stain EM

Row | Substance | stoichiometry N [1] | stoichiometry N [2]
1 | GhV F I268F/Q287P/S196C/A215C ectodomain (domain or fragment) | 3 | 
2 | GhV F I268F/Q287P ectodomain (domain or fragment) |  | 3
